Test results reported in the supplement of paper PMC9112550, “Optimization of the antimicrobial peptide Bac7 by deep mutational scanning” (BMC Biology, 2022).

Tested on: Escherichia coli TOP10
Test: shrunken log2 fold change of peptide-encoding DNA abundance (4.5 h post-induction vs induction); higher = less antimicrobial activity (less host growth inhibition)
Settings: time post-induction: 4.5 h; library: site-saturation at positions 5, 18, 19, 20
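Note: peptides expressed intracellularly from a pBAD plasmid library in pooled LB shake-flask culture, induced with 0.3% L-arabinose, DNA abundance read by NGS, three biological replicates, DESeq2 with apeglm shrinkage.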

| Sequence | shrunken log2 fold change |
| --- | --- |
| RRIRCRPPRLPRPRPRPLAKPRP | 1.69 |
| RRIRNRPPRLPRPRPRPCYLPRP | -1.19 |
| RRIRGRPPRLPRPRPRPCAHPRP | 0.251 |
| RRIRLRPPRLPRPRPRPHQDPRP | -0.308 |
| RRIRPRPPRLPRPRPRPAPQPRP | 0.461 |
| RRIRIRPPRLPRPRPRPRRHPRP | -0.147 |
| RRIRPRPPRLPRPRPRPHTWPRP | -0.0512 |
| RRIRDRPPRLPRPRPRPFMIPRP | 0.0898 |
| RRIRNRPPRLPRPRPRPRCKPRP | 0.0547 |
| RRIRERPPRLPRPRPRPIGCPRP | -0.00631 |
| RRIRTRPPRLPRPRPRPAKPPRP | 0.583 |
| RRIRQRPPRLPRPRPRPRAHPRP | 0.638 |
| RRIRTRPPRLPRPRPRPSPNPRP | -0.337 |
| RRIRKRPPRLPRPRPRPYDKPRP | -0.124 |
| RRIRGRPPRLPRPRPRPCTSPRP | 0.188 |
| RRIRPRPPRLPRPRPRPNRHPRP | -0.0624 |
| RRIRNRPPRLPRPRPRPERIPRP | -0.00936 |
| RRIRWRPPRLPRPRPRPICCPRP | 0.149 |
| RRIRERPPRLPRPRPRPCYYPRP | -0.312 |
| RRIRSRPPRLPRPRPRPWHVPRP | -0.0882 |
| RRIRHRPPRLPRPRPRPHTQPRP | 0.0972 |
| RRIRCRPPRLPRPRPRPQTPPRP | 0.48 |

| Sequence | shrunken log2 fold change |
| --- | --- |
| RRIRYRPPRLPRPRPRPCSTPRP | -0.212 |
| RRIRYRPPRLPRPRPRPDREPRP | -0.15 |
| RRIRCRPPRLPRPRPRPQIAPRP | -0.0699 |
| RRIRFRPPRLPRPRPRPSESPRP | -0.0918 |
| RRIRSRPPRLPRPRPRPDGSPRP | -0.0196 |
| RRIRCRPPRLPRPRPRPQNMPRP | -0.78 |
| RRIRFRPPRLPRPRPRPMYYPRP | -0.123 |
| RRIRYRPPRLPRPRPRPTPCPRP | -0.122 |
| RRIRCRPPRLPRPRPRPAPQPRP | 0.829 |
| RRIRPRPPRLPRPRPRPIISPRP | -0.189 |
| RRIRSRPPRLPRPRPRPKKEPRP | 0.00678 |
| RRIRRRPPRLPRPRPRPPQIPRP | 0.908 |
| RRIRKRPPRLPRPRPRPEPFPRP | 0.0238 |
| RRIRVRPPRLPRPRPRPYMHPRP | -0.3 |
| RRIRCRPPRLPRPRPRPAYDPRP | 0.0664 |
| RRIRSRPPRLPRPRPRPHAMPRP | -0.376 |
| RRIRWRPPRLPRPRPRPNPRPRP | 0.452 |
| RRIRDRPPRLPRPRPRPDYYPRP | 0.00235 |
| RRIRGRPPRLPRPRPRPEMRPRP | 2.35 |
| RRIRHRPPRLPRPRPRPVYLPRP | -0.406 |
| RRIRNRPPRLPRPRPRPLESPRP | -0.0331 |
| RRIRTRPPRLPRPRPRPCRHPRP | -0.101 |

| Sequence | shrunken log2 fold change |
| --- | --- |
| RRIRGRPPRLPRPRPRPIGEPRP | 0.187 |
| RRIRCRPPRLPRPRPRPPYIPRP | -0.305 |
| RRIRFRPPRLPRPRPRPHKLPRP | -0.377 |
| RRIRYRPPRLPRPRPRPNMRPRP | 0.117 |
| RRIRPRPPRLPRPRPRPNLEPRP | -0.0337 |
| RRIRERPPRLPRPRPRPNPIPRP | -0.213 |
| RRIRERPPRLPRPRPRPMPPPRP | 0.197 |
| RRIRMRPPRLPRPRPRPMMDPRP | 0.0325 |
| RRIRRRPPRLPRPRPRPNFLPRP | 0.0376 |
| RRIRYRPPRLPRPRPRPICSPRP | 0.0329 |
| RRIRVRPPRLPRPRPRPYCTPRP | -0.284 |
| RRIRWRPPRLPRPRPRPAWQPRP | 0.427 |
| RRIRLRPPRLPRPRPRPQETPRP | 0.0529 |
| RRIRQRPPRLPRPRPRPWSRPRP | 0.00812 |
| RRIRQRPPRLPRPRPRPFHSPRP | -0.00884 |
| RRIRCRPPRLPRPRPRPDQQPRP | 0.0369 |
| RRIRWRPPRLPRPRPRPPKWPRP | 0.627 |
| RRIRFRPPRLPRPRPRPFAIPRP | -0.109 |
| RRIRVRPPRLPRPRPRPETLPRP | -0.223 |
| RRIRVRPPRLPRPRPRPNDSPRP | -0.326 |
| RRIRDRPPRLPRPRPRPALHPRP | 0.438 |
| RRIRDRPPRLPRPRPRPGKVPRP | -0.00262 |

| Sequence | shrunken log2 fold change |
| --- | --- |
| RRIRDRPPRLPRPRPRPVSEPRP | 0.514 |
| RRIRIRPPRLPRPRPRPREFPRP | 0.0231 |
| RRIRKRPPRLPRPRPRPPADPRP | 0.563 |
| RRIRVRPPRLPRPRPRPANTPRP | -0.0315 |
| RRIRFRPPRLPRPRPRPTWLPRP | 0.299 |
| RRIRKRPPRLPRPRPRPCLVPRP | 0.123 |
| RRIRLRPPRLPRPRPRPDYTPRP | -0.295 |
| RRIRSRPPRLPRPRPRPHCTPRP | -0.298 |
| RRIRIRPPRLPRPRPRPRHDPRP | -0.385 |
| RRIRARPPRLPRPRPRPVGLPRP | 0.321 |
| RRIRSRPPRLPRPRPRPAYDPRP | -0.477 |
| RRIRWRPPRLPRPRPRPKIMPRP | -0.198 |
| RRIRQRPPRLPRPRPRPRDCPRP | 0.142 |
| RRIRKRPPRLPRPRPRPPSKPRP | 0.541 |
| RRIRKRPPRLPRPRPRPLHRPRP | 0.36 |
| RRIRDRPPRLPRPRPRPYADPRP | -0.155 |
| RRIRDRPPRLPRPRPRPMFFPRP | 0.125 |
| RRIRLRPPRLPRPRPRPERDPRP | -0.189 |
| RRIRTRPPRLPRPRPRPKVSPRP | -0.0491 |
| RRIRVRPPRLPRPRPRPLWRPRP | 0.293 |
| RRIRSRPPRLPRPRPRPAIWPRP | 0.463 |
| RRIRWRPPRLPRPRPRPQAVPRP | 0.232 |

| Sequence | shrunken log2 fold change |
| --- | --- |
| RRIRERPPRLPRPRPRPTHVPRP | 0.231 |
| RRIRMRPPRLPRPRPRPVQEPRP | 0.051 |
| RRIRWRPPRLPRPRPRPRGWPRP | 1.13 |
| RRIRWRPPRLPRPRPRPYCHPRP | -0.437 |
| RRIRTRPPRLPRPRPRPNVAPRP | 0.174 |
| RRIRTRPPRLPRPRPRPWFTPRP | 0.00948 |
| RRIRARPPRLPRPRPRPWYMPRP | -0.958 |
| RRIRARPPRLPRPRPRPRICPRP | 0.29 |
| RRIRVRPPRLPRPRPRPVQIPRP | -0.0141 |
| RRIRIRPPRLPRPRPRPHFMPRP | -0.685 |
| RRIRQRPPRLPRPRPRPQHFPRP | 0.14 |
| RRIRERPPRLPRPRPRPLFDPRP | -0.581 |
| RRIRRRPPRLPRPRPRPNQCPRP | -0.0957 |
| RRIRSRPPRLPRPRPRPELSPRP | 0.963 |
| RRIRVRPPRLPRPRPRPNYLPRP | -0.102 |
| RRIRWRPPRLPRPRPRPPCQPRP | 0.0989 |
| RRIRSRPPRLPRPRPRPWYGPRP | -0.933 |
| RRIRGRPPRLPRPRPRPHAAPRP | 1.47 |
| RRIRNRPPRLPRPRPRPNTYPRP | -0.971 |
| RRIRNRPPRLPRPRPRPEHKPRP | 0.00308 |
| RRIRWRPPRLPRPRPRPLNAPRP | 0.438 |
